Each block holds one sequence with its values, some of them ahead of it.
How the values were obtained:
HLA-A*03:01 [1] = assay: IEDB peptide-MHC binding, purified MHC/competitive/fluorescence; ≥ and ≤ were set here for values at or beyond the usual limits of such assays
HLA-A*11:01 = assay: as above
HLA-A*03:01 [2] = assay: IEDB peptide-MHC binding, purified MHC/competitive/fluorescence; filed as Kd, often an IC50 or EC50 that approximates it; ≥ and ≤ were set here for values at or beyond the usual limits of such assays
HLA-B*07:02 = assay: IEDB peptide-MHC binding, purified MHC/competitive/radioactivity; filed as Kd, often an IC50 or EC50 that approximates it; ≥ and ≤ were set here for values at or beyond the usual limits of such assays
HLA-B*35:01 = assay: as above
HLA-B*51:01 [3] = assay: as above
HLA-B*53:01 = assay: as above
HLA-B*54:01 = assay: as above
HLA-A*02:01 [4] = assay: IEDB peptide-MHC binding, purified MHC/competitive/fluorescence; ≥ and ≤ were set here for values at or beyond the usual limits of such assays
HLA-A*24:02 = assay: as above; details: source organism: Zaire ebolavirus
HLA-B*15:01 [5] = assay: as above
HLA-A*02:03 = assay: IEDB peptide-MHC binding, purified MHC/competitive/radioactivity; filed as Kd, often an IC50 or EC50 that approximates it; ≥ and ≤ were set here for values at or beyond the usual limits of such assays
HLA-A*02:17 = assay: as above
HLA-A*02:06 = assay: as above
HLA-A*01:01 = assay: IEDB peptide-MHC binding, purified MHC/direct/fluorescence; filed as Kd, often an IC50 or EC50 that approximates it; ≥ and ≤ were set here for values at or beyond the usual limits of such assays; details: source organism: Homo sapiens
HLA-A*02:01 [6] = assay: IEDB peptide-MHC binding, purified MHC/competitive/fluorescence; filed as Kd, often an IC50 or EC50 that approximates it; ≥ and ≤ were set here for values at or beyond the usual limits of such assays; details: source organism: Homo sapiens
HLA-A*69:01 = assay: as above; details: source organism: Homo sapiens
HLA-B*18:01 = assay: as above; details: source organism: Homo sapiens
HLA-B*27:03 = assay: as above; details: source organism: Homo sapiens
HLA-B*39:01 = assay: as above; details: source organism: Homo sapiens
HLA-B*46:01 = assay: as above; details: source organism: Homo sapiens
HLA-B*51:01 [7] = assay: as above; details: source organism: Homo sapiens
HLA-B*57:01 = assay: as above; details: source organism: Homo sapiens
HLA-B*08:01 = assay: IEDB peptide-MHC binding, purified MHC/competitive/radioactivity; filed as Kd, often an IC50 or EC50 that approximates it; ≥ and ≤ were set here for values at or beyond the usual limits of such assays; details: source organism: Dengue virus 3 Sri Lanka/1266/2000
HLA-B*15:01 [8] = assay: as above; details: source organism: Dengue virus 3 Sri Lanka/1266/2000
[9] = source organism: Zaire ebolavirus
[10] = source organism: SARS coronavirus Tor2
[11] = source organism: Dengue virus 3 Martinique/1243/1999
[12] = source organism: Vaccinia virus WR
[13] = source organism: Triticum aestivum
[14] = source organism: Dengue virus 2 Jamaica/1409/1983
[15] = source organism: Dengue virus 3 China/80-2/1980

Sequence: LQLPRDRFK
IC50 (HLA-A*03:01 [1]; [9]): 5420 nM
IC50 (HLA-A*11:01; [9]): 1760 nM

Sequence: MMYTVSLGH
Kd (HLA-A*03:01 [2]; source organism: Vibrio parahaemolyticus AQ3810): 1.2 nM

Sequence: MPNMLRIMA
Kd (HLA-B*07:02; [10]): 9.8 nM
Kd (HLA-B*35:01; [10]): 11.7 nM
Kd (HLA-B*51:01 [3]; [10]): 393 nM
Kd (HLA-B*53:01; [10]): 27 nM
Kd (HLA-B*54:01; [10]): 0.256 nM

Sequence: MPVTAASAAQ
Kd (HLA-B*35:01; [11]): 1590 nM
Kd (HLA-B*51:01 [3]; [11]): ≥ 20500 nM

Sequence: MVTRFESLK
Kd (HLA-A*03:01 [2]; source organism: Influenza A virus (A/Swine/Minnesota/55551/2000(H1N2))): 163 nM

Sequence: NTTGKLIWK
IC50 (HLA-A*03:01 [1]; [9]): 24700 nM
IC50 (HLA-A*11:01; [9]): 1040 nM

Sequence: PSVIEEWKK
IC50 (HLA-A*11:01; [12]): ≥ 107000 nM

Kd (HLA-B*07:02; [13]): 6870 nM
Kd (HLA-B*35:01; [13]): 15000 nM
Kd (HLA-B*51:01 [3]; [13]): 12600 nM
Kd (HLA-B*53:01; [13]): ≥ 37500 nM
Kd (HLA-B*54:01; [13]): ≥ 87700 nM
Sequence: QPLSQVSF

Kd (HLA-B*07:02; [13]): 632 nM
Kd (HLA-B*35:01; [13]): 369 nM
Kd (HLA-B*51:01 [3]; [13]): 150 nM
Kd (HLA-B*53:01; [13]): ≥ 22000 nM
Kd (HLA-B*54:01; [13]): ≥ 23400 nM
Sequence: QPYLQLQPFL

Sequence: QQTNAMVTL
IC50 (HLA-A*02:01 [4]; [9]): 38500 nM
IC50 (HLA-A*24:02): 59100 nM
IC50 (HLA-B*15:01 [5]; [9]): ≥ 76000 nM

Sequence: QTNAMVTLR
IC50 (HLA-A*03:01 [1]; [9]): 16200 nM
IC50 (HLA-A*11:01; [9]): 1200 nM

Sequence: QVPKLLLWF
IC50 (HLA-A*02:01 [4]; source organism: Variola virus): 2060 nM
IC50 (HLA-B*15:01 [5]; source organism: Variola virus): ≥ 371000 nM

Sequence: RLITVNPIV
Kd (HLA-A*02:03; [14]): 62.7 nM
Kd (HLA-A*02:17; [14]): 621 nM

Sequence: SKRERQLAK
IC50 (HLA-A*03:01 [1]; source organism: Vaccinia virus Copenhagen): 30400 nM

Sequence: SPEGEETII
Kd (HLA-B*07:02; [12]): 11100 nM
Kd (HLA-B*35:01; [12]): ≥ 40600 nM
Kd (HLA-B*51:01 [3]; [12]): 15900 nM
Kd (HLA-B*53:01; [12]): 270 nM
Kd (HLA-B*54:01; [12]): ≥ 78100 nM

Sequence: TNTTTEDHK
IC50 (HLA-A*11:01; [9]): ≥ 110000 nM

Sequence: TTAAGPPKA
IC50 (HLA-A*02:01 [4]; [9]): 11700 nM
IC50 (HLA-A*11:01; [9]): 40600 nM

Sequence: VAGLITGGR
IC50 (HLA-A*02:01 [4]; [9]): ≥ 655000 nM
IC50 (HLA-A*03:01 [1]; [9]): ≥ 104000 nM
IC50 (HLA-A*11:01; [9]): 26100 nM

Sequence: VIFILLMLV
Kd (HLA-A*02:03; [11]): 171 nM
Kd (HLA-A*02:06; [11]): 2350 nM
Kd (HLA-A*02:17; [15]): 914 nM

Sequence: VQRQIQVHA
IC50 (HLA-A*02:01 [4]; [9]): 45500 nM
IC50 (HLA-B*15:01 [5]; [9]): 13500 nM

Kd (HLA-A*01:01): 5.4 nM
Kd (HLA-A*02:01 [6]): ≥ 20000 nM
Kd (HLA-A*69:01): ≥ 20000 nM
Kd (HLA-B*18:01): ≥ 20000 nM
Kd (HLA-B*27:03): ≥ 20000 nM
Kd (HLA-B*39:01): ≥ 20000 nM
Kd (HLA-B*46:01): ≥ 20000 nM
Kd (HLA-B*51:01 [7]): ≥ 20000 nM
Kd (HLA-B*57:01): ≥ 20000 nM
Sequence: VTSSVSSGY

Sequence: YPDLNFDNTY
Kd (HLA-B*07:02; [12]): ≥ 69600 nM
Kd (HLA-B*35:01; [12]): 18.4 nM
Kd (HLA-B*51:01 [3]; [12]): ≥ 69600 nM
Kd (HLA-B*53:01; [12]): 22.2 nM
Kd (HLA-B*54:01; [12]): 1750 nM

Sequence: YPSMFTLRHI
Kd (HLA-B*07:02; [12]): 15.5 nM
Kd (HLA-B*35:01; [12]): 446 nM
Kd (HLA-B*51:01 [3]; [12]): 2.58 nM
Kd (HLA-B*53:01; [12]): 0.943 nM
Kd (HLA-B*54:01; [12]): 20.8 nM

Sequence: YQLWTALVSL
Kd (HLA-A*02:06; source organism: Dengue virus 3 Sri Lanka/1266/2000): 5.87 nM
Kd (HLA-A*02:17; [15]): 91.4 nM
Kd (HLA-B*08:01): 974 nM
Kd (HLA-B*15:01 [8]): 191 nM

From the Immune Epitope Database (IEDB)
